Tests used:
[1] = target: T1, HLA-A0301 (human); experiment: stabilization assay on Raji HLA-A0301 cells
T1 construct: MHC class I molecule on Raji HLA-A0301 cells

[2] = target: T2, HLA-A0201 (human); experiment: T2 cell HLA stabilization assay, flow cytometry
T2 construct: MHC class I molecule on T2 cells; also called HLA-A2.1; HLA 0201
Method: T2 cells (TAP″, HLA-A0201⁺) were incubated overnight at 27° C. at a concentration of 1×10⁶ cells/ml in FCS-free RPMI medium supplemented with 5 μg/ml human β₂m (Sigma, St Louis, Mo.) in the absence (negative control) or presence of either a positive reference tyrosinase peptide or test peptides at various final concentrations (50, 10, 1, and 0.1 micrograms (μg)/ml). Following a 4-hour incubation with 5 μg/ml brefeldin A (Sigma), T2 cells were labeled for 30 minutes at 4° C. with a saturating concentration of anti-HLA-A2.1 (BB7.2) mAb, then washed twice. Cells were then incubated for 30 minutes, 4° C. with a saturating concentration of FITC-conjugated goat IgG F(ab′)2 anti-mouse Ig (Caltag, San Francisco, Calif.), washed twice, fixed in PBS/1% paraformaldehyde and analyzed using a FACS Calibur® cytofluorometer (Becton Dickinson, Immunocytometry Systems, San Jose, Calif.).
The mean intensity of fluorescence (MIF) observed for each peptide concentration (after dividing by the MIF in the absence of peptide) was used as an indication of peptide binding and expressed as a “fluorescence index.” Stabilization assays were performed similarly. Following initial evaluation of peptide binding at time 0, cells were washed in RPMI complete medium to remove free peptides and incubated in the continuous presence of 0.5 μg/ml brefeldin-A for 2, 4, 6 or 8 hours.

| Binder | binding result [1] | binding result [2] |
| --- | --- | --- |
| NMHQRNMTK [A3 WT-1 A (native)] | binds |  |
| NMYQRNMTK [A3 WT-1 A1 (ANALOGUE)] | binds |  |
| NMHQRVMTK [A3WT-1 A2 (ANALOGUE)] | binds |  |
| FMCAYPGCNK [A3WT-1 C (native)] | binds |  |
| FMYAYPGCNK [A3WT-1 C1 (ANALOGUE)] | binds |  |
| QMNLGATLK [A3 WT-1 B (native)] | binds |  |
| QMYLGATLK [A3WT-1 B1 (ANALOGUE)] | binds |  |
| QMYLGVTLK [A3WT-1 B3 (ANALOGUE)] | binds |  |
| YLGEQQYSV [WT-1 B1 (ANALOGUE)] |  | binds |
| YLLPAVPSL [WT-1 C1 (ANALOGUE)] |  | binds |
| ALLPAVPSL [WT-1 C (native)] |  | binds |
| KLSHLQMHSR [A3WT-1 D (native)] | binds |  |
| YMFPNAPYL [WT-1 A1 (ANALOGUE)] |  | binds |
| YLGATLKGV [WT-1 D1 (ANALOGUE)] |  | binds |

The next lines start with the values.

| binding result [1] | binding result [2] | Binder |
| --- | --- | --- |
| binds |  | NMYQRVMTK [A3 WT-1 A3 (ANALOGUE)] |
| binds |  | FMCAYPFCNK [A3 WT-1 C2 (ANALOGUE)] |
| binds |  | FMYAYPFCNK [A3 WT-1 C3 (ANALOGUE)] |
| binds |  | QMNLGVTLK [A3WT-1 B2 (ANALOGUE)] |
|  | binds | SLGEQQYSV [WT-1 B (native)] |
| binds |  | KLYHLQMHSK [A3 WT-1 D3 (ANALOGUE)] |
| binds |  | KLSHLQMHSK [A3 WT-1 D2 (ANALOGUE)] |
| binds |  | KLYHLQMHSR [A3WT-1 D1 (ANALOGUE)] |
|  | binds | RMFPNAPYL [WT-1 A (native)] |
|  | binds | NLGATLKGV [WT-1 D (native)] |

Reference: patent publication US20100111986A1 (Memorial Sloan Kettering, published 2010)
